In patent US20230265151A1, “GIP/GLP1 CO-AGONIST COMPOUNDS” (priority 2020, published 2023):
*1 amine or outer side, *2 acyl side, *3 side chain or, on linkers, in order; H or OH if unused. Where no end group is shown, it is not given here. Side-chain parts run from the residue outwards. [ ]: non-standard residue; d: D form. The star is where a group is joined. αMePhe(2-F) = C[C@](N)(Cc1ccccc1F)C(=O)O; γGlu = O=C(O)[C@H](CCC(=O)[*:2])N[*:1]; C14 diacid = O=C(O)CCCCCCCCCCCCC(=O)*; αMeY = C[C@](N)(Cc1ccc(O)cc1)C(=O)O; αMeL = CC(C)C[C@](C)(N)C(=O)O; Nle = CCCC[C@H](N)C(=O)O; Orn = NCCC[C@H](N)C(=O)O; AEEA = NCCOCCOCC(=O)O; Aib = CC(C)(N)C(=O)O

What was measured:
Assay in all cases: cell-based or functional assay
[1] = target: T1, human GIP receptor (human, UniProt P48546 22-466)
T1 sequence (looked up): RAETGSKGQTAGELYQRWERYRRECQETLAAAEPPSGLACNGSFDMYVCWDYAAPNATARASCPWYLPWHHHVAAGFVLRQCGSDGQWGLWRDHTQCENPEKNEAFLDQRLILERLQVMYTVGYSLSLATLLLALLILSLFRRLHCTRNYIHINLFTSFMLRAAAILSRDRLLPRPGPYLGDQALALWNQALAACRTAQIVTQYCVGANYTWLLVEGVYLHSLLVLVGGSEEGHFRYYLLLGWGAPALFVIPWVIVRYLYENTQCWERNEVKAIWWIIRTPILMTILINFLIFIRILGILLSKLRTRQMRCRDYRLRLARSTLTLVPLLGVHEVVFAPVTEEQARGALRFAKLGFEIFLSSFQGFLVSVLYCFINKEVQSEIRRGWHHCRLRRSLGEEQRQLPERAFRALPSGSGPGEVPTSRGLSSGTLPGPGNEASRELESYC

[2] = target: human GLP-1 receptor (human, UniProt P43220 24-463)
[3] = target: human glucagon receptor (human, UniProt P47871 26-477)

Row | Binder | cAMP EC50 (1.0% HSA) [1] [nM] | cAMP EC50 (1.0% HSA) [2] [nM] | cAMP EC50 (1.0% HSA) [3] [nM] | cAMP Emax (1.0% HSA) [1] [%] | cAMP Emax (1.0% HSA) [2] [%]
1 | YXEGTXTSDXSIXLDXIAQXKFIXXLIKGGPSSGAPPPS (Y-Aib-EGT-αMeF(2F)-TSD-4Pa1-SI-αMeL-LD-Orn-IAQ-Aib-K((2-[2-(2-Amino-ethoxy)-ethoxy]-acetyl)2-(γ-Glu)-(10-(4-carboxyphenoxy)decanoyl))FI-(D-Glu)-αMeY-LIK((2-[2-(2-Amino-ethoxy)-ethoxy]-acetyl)2-(γ-Glu)-(10-(4-carboxyphenoxy)decanoyl))GGPSSGAPPPS-NH2) [Example 275] | 0.926 | 33.5 | > 9950 | – | –
2 | YXEGTXTSDYXIXLDXIAQXEFIKXLIKGGPSSGAPPPS (Y-Aib-EGT-αMeF(2F)-TSDY-αMeS-I-αMeL-LD-Orn-IAQ-Aib-EFIK((2-[2-(2-Amino-ethoxy)-ethoxy]-acetyl)2-(γ-Glu)-(10-(4-carboxyphenoxy)decanoyl))-αMeY-LIK((2-[2-(2-Amino-ethoxy)-ethoxy]-acetyl)2-(γ-Glu)-(10-(4-carboxyphenoxy)decanoyl))GGPSSGAPPPS-NH2) [Example 307] | 1.66 | 33 | > 9950 | 81.8 | –
3 | YXEGTXTSDXXIXLDXIAQXEFIKXLIKGGPSSGAPPPS (Y-Aib-EGT-αMeF(2F)-TSD-4Pal-Aib-I-αMeL-LD-Orn-IAQ-Aib-EFIK(2-[2-(2-Amino-ethoxy)-ethoxy]-acetyl)2-(γ-Glu)-(11-(4-carboxyphenoxy)undecanoyl)-αMeY-LIK((2-[2-(2-Amino-ethoxy)-ethoxy]-acetyl)2-(γ-Glu)-(11-(4-carboxyphenoxy)undecanoyl)GGPSSGAPPPS-NH2)) [Example 311] | 2.16 | 33.8 | > 9950 | 98.3 | –
4 | YXEGTXTSDXSIXLDXIAQXEFIKXLIKGGPSSGAPPPS (Y-Aib-EGT-αMeF(2F)-TSD-hTyr-SI-αMeL-LD-Orn-IAQ-Aib-EFIK((2-[2-(2-Amino-ethoxy)-ethoxy]-acetyl)2-(γ-Glu)-(10-(4-carboxyphenoxy)decanoyl))-αMeY-LIK((2-[2-(2-Amino-ethoxy)-ethoxy]-acetyl)2-(γ-Glu)-(10-(4-carboxyphenoxy)decanoyl))GGPSSGAPPPS-NH2) [Example 310] | 2.4 | 22 | > 9950 | 83.9 | –
5 | YXEGTXTSDXSIXLDXIAQXEFIKXLIKGGPSSGAPPPS (Y-Aib-EGT-αMeF(2F)-TSD-2Nal-SI-αMeL-LD-Orn-IAQ-Aib-EFIK((2-[2-(2-Amino-ethoxy)-ethoxy]-acetyl)2-(γ-Glu)-(10-(4-carboxyphenoxy)decanoyl))-αMeY-LIK((2-[2-(2-Amino-ethoxy)-ethoxy]-acetyl)2-(γ-Glu)-(10-(4-carboxyphenoxy)decanoyl))GGPSSGAPPPS-NH2) [Example 283] | 4.88 | 49.5 | > 9950 | – | –
6 | YXEGTXTSDXSIXLDXKAQXEFIXXLIKGGPSSGAPPPS (Y-Aib-EGT-αMeF(2F)-TSD-OMeY-SI-αMeL-LD-Orn-K((2-[2-(2-Amino-ethoxy)-ethoxy]-acetyl)2-(γ-Glu)-CO-(CH2)10-CH3)AQ-Aib-EFI-(D-Glu)-αMeY-LIK((2-[2-(2-Amino-ethoxy)-ethoxy]-acetyl)2-(γ-Glu)-CO-(CH2)10-CH3)GGPSSGAPPPS-NH2) [Example 290] | 0.878 | 12.1 | > 9950 | – | –
7 | YXEGTXTSDXSIXLDXIAQXEFIKXLIKGGPSSGAPPPS (Y-Aib-EGT-αMeF(2F)-TSD-4Pal-SI-αMeL-LD-Orn-IAQ-Aib-EFIK(2-[2-(2-Amino-ethoxy)-ethoxy]-acetyl)2-(γ-Glu)-(11-(4-carboxyphenoxy)undecanoyl)-αMeY-LIK((2-[2-(2-Amino-ethoxy)-ethoxy]-acetyl)2-(γ-Glu)-(11-(4-carboxyphenoxy)undecanoyl)GGPSSGAPPPS-NH2)) [Example 286] | 2.18 | 35 | > 9950 | – | 90.3
8 | YXEGTXTSDXSIXLDXIAQXKFIXXLIKGGPSSGAPPPS (Y-Aib-EGT-αMeF(2F)-TSD-2Nal-SI-αMeL-LD-Orn-IAQ-Aib-K((2-[2-(2-Amino-ethoxy)-ethoxy]-acetyl)2-(γ-Glu)-(10-(4-carboxyphenoxy)decanoyl))FI-(D-Glu)-αMeY-LIK((2-[2-(2-Amino-ethoxy)-ethoxy]-acetyl)2-(γ-Glu)-(10-(4-carboxyphenoxy)decanoyl))GGPSSGAPPPS-NH2) [Example 284] | 8.38 | 137 | > 9950 | – | –
9 | YXEGTXTSDYXIXLDXIAQXEFIKXLIKGGPSSGAPPPS (Y-Aib-EGT-αMeF(2F)-TSDY-Aib-I-αMeL-LD-Orn-IAQ-Aib-EFIK(2-[2-(2-Amino-ethoxy)-ethoxy]-acetyl)2-(γ-Glu)-(11-(4-carboxyphenoxy)undecanoyl)-αMeY-LIK((2-[2-(2-Amino-ethoxy)-ethoxy]-acetyl)2-(γ-Glu)-(11-(4-carboxyphenoxy)undecanoyl)GGPSSGAPPPS-NH2)) [Example 312] | 4.48 | 50.8 | > 9950 | 89.5 | –
10 | YXEGTXTSDXSIXLDXKAQXEFIXXLIEGGPSSGAPPPSK (Y-Aib-EGT-αMeF(2F)-TSD-4Pal-SI-αMeL-LD-Orn-K((2-[2-(2-Amino-ethoxy)-ethoxy]-acetyl)2-(γ-Glu)-(10-(4-carboxyphenoxy)decanoyl))AQ-Aib-EFI-(D-Glu)-αMeY-LIEGGPSSGAPPPSK((2-[2-(2-Amino-ethoxy)-ethoxy]-acetyl)2-(γ-Glu)-(10-(4-carboxyphenoxy)decanoyl))-NH2) [Example 273] | 0.318 | 40.9 | > 9950 | – | –
11 | YXEGTXTSDXSIXLDXKAQXEFIXXLIEGGPSSGAPPPSK (Y-Aib-EGT-αMeF(2F)-TSD-OMeY-SI-αMeL-LD-Orn-K((2-[2-(2-Amino-ethoxy)-ethoxy]-acetyl)2-(γ-Glu)-CO-(CH2)10-CH3)AQ-Aib-EFI-(D-Glu)-αMeY-LIEGGPSSGAPPPSK((2-[2-(2-Amino-ethoxy)-ethoxy]-acetyl)2-(γ-Glu)-CO-(CH2)10-CH3)-NH2) [Example 291] | 0.833 | 7.43 | > 9950 | – | –
12 | YXEGTXTSDXSIXLDXIAQXKFIXXLIEGGPSSGAPPPSK (Y-Aib-EGT-αMeF(2F)-TSD-4Pal-SI-αMeL-LD-Orn-IAQ-Aib-K(2-[2-(2-Amino-ethoxy)-ethoxy]-acetyl)2-(γ-Glu)-(11-(4-carboxyphenoxy)undecanoyl)FI-(D-Glu)-αMeY-LIEGGPSSGAPPPSK((2-[2-(2-Amino-ethoxy)-ethoxy]-acetyl)2-(γ-Glu)-(11-(4-carboxyphenoxy)undecanoyl)-NH2)) [Example 288] | 0.48 | 17.1 | > 9950 | 85.2 | 123
13 | YXEGTXTSDXSIXLDXKAQXEFIXXLIEGGPSSGAPPPSK (Y-Aib-EGT-αMeF(2F)-TSD-4Pal-SI-αMeL-LD-Orn-K((2-[2-(2-Amino-ethoxy)-ethoxy]-acetyl)2-(γ-Glu)-(11-(4-carboxyphenoxy)undecanoyl))AQ-Aib-EFI-(D-Glu)-αMeY-LIEGGPSSGAPPPSK((2-[2-(2-Amino-ethoxy)-ethoxy]-acetyl)2-(γ-Glu)-(11-(4-carboxyphenoxy)undecanoyl))-NH2) [Example 285] | 1.28 | 136 | > 9950 | – | –
14 | YXEGTXTSDXSIXLDXIAQXKFIXXLIEGGPSSGAPPPSK (Y-Aib-EGT-αMeF(2F)-TSD-4Pal-SI-αMeL-LD-Orn-IAQ-Aib-K((2-[2-(2-Amino-ethoxy)-ethoxy]-acetyl)2-(y-Glu)-(10-(4-carboxyphenoxy)decanoyl))FI-(D-Glu)-αMeY-LIEGGPSSGAPPPSK((2-[2-(2-Amino-ethoxy)-ethoxy]-acetyl)2-(γ-Glu)-(10-(4-carboxyphenoxy)decanoyl))-NH2) [Example 276] | 1.97 | 63.6 | > 9950 | 91.4 | –
15 | Y[Aib]EGT[αMePhe(2-F)]TSD[Nle]SI[αMeL]LD[Orn]IAQ[Aib]EFIK([AEEA-AEEA-γGlu-C14 diacid])[αMeY]LIK([AEEA-AEEA-γGlu-C14 diacid])GGPSSGAPPPS-NH2 (N-terminus assumed; SMILES CCCC[C@H](NC(=O)[C@H](CC(=O)O)NC(=O)[C@H](CO)NC(=O)[C@@H](NC(=O)[C@](C)(Cc1ccccc1F)NC(=O)[C@@H](NC(=O)CNC(=O)[C@H](CCC(=O)O)NC(=O)C(C)(C)NC(=O)[C@@H](N)Cc1ccc(O)cc1)[C@@H](C)O)[C@@H](C)O)C(=O)N[C@@H](CO)C(=O)N[C@H](C(=O)N[C@@](C)(CC(C)C)C(=O)N[C@@H](CC(C)C)C(=O)N[C@@H](CC(=O)O)C(=O)N[C@@H](CCCN)C(=O)N[C@H](C(=O)N[C@@H](C)C(=O)N[C@@H](CCC(N)=O)C(=O)NC(C)(C)C(=O)N[C@@H](CCC(=O)O)C(=O)N[C@@H](Cc1ccccc1)C(=O)N[C@H](C(=O)N[C@@H](CCCCNC(=O)COCCOCCNC(=O)COCCOCCNC(=O)CC[C@H](NC(=O)CCCCCCCCCCCCC(=O)O)C(=O)O)C(=O)N[C@@](C)(Cc1ccc(O)cc1)C(=O)N[C@@H](CC(C)C)C(=O)N[C@H](C(=O)N[C@@H](CCCCNC(=O)COCCOCCNC(=O)COCCOCCNC(=O)CC[C@H](NC(=O)CCCCCCCCCCCCC(=O)O)C(=O)O)C(=O)NCC(=O)NCC(=O)N1CCC[C@H]1C(=O)N[C@@H](CO)C(=O)N[C@@H](CO)C(=O)NCC(=O)N[C@@H](C)C(=O)N1CCC[C@H]1C(=O)N1CCC[C@H]1C(=O)N1CCC[C@H]1C(=O)N[C@@H](CO)C(N)=O)[C@@H](C)CC)[C@@H](C)CC)[C@@H](C)CC)[C@@H](C)CC) [Example 269] | 2.65 | 46.5 | > 9950 | – | –
